Laboratory results as given in publication PMC12272874.

Target: N-terminal FMN-binding domain of human methionine synthase reductase (ΔCMTRR, residues 1 to 231) (UniProt Q9UBK8)
Assay: stopped-flow absorption spectroscopy; MTR•cob(II)alamin (40 μM) rapidly mixed with ΔCMTRRhq (70 μM) in Buffer D (100 mM potassium phosphate, pH 7.4), anaerobic, 24 °C; increase in absorbance at 464 nm (loss of His-785 coordination) over 60 s, double exponential fit
Conditions: other: stopped-flow absorption spectroscopy

N-terminal FMN-binding domain of human methionine synthase reductase (ΔCMTRR, residues 1 to 231), sequence (Q9UBK8 1-231, stated change not applied): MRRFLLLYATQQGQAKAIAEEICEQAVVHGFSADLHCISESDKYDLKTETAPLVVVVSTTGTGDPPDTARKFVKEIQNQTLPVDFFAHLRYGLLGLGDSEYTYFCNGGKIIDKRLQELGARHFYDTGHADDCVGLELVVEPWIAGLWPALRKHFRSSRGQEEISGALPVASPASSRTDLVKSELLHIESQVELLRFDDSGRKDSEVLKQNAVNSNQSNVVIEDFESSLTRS
P1173L variant of human methionine synthase (MTR), full-length recombinant, sequence (chain, as listed by the source P1173L): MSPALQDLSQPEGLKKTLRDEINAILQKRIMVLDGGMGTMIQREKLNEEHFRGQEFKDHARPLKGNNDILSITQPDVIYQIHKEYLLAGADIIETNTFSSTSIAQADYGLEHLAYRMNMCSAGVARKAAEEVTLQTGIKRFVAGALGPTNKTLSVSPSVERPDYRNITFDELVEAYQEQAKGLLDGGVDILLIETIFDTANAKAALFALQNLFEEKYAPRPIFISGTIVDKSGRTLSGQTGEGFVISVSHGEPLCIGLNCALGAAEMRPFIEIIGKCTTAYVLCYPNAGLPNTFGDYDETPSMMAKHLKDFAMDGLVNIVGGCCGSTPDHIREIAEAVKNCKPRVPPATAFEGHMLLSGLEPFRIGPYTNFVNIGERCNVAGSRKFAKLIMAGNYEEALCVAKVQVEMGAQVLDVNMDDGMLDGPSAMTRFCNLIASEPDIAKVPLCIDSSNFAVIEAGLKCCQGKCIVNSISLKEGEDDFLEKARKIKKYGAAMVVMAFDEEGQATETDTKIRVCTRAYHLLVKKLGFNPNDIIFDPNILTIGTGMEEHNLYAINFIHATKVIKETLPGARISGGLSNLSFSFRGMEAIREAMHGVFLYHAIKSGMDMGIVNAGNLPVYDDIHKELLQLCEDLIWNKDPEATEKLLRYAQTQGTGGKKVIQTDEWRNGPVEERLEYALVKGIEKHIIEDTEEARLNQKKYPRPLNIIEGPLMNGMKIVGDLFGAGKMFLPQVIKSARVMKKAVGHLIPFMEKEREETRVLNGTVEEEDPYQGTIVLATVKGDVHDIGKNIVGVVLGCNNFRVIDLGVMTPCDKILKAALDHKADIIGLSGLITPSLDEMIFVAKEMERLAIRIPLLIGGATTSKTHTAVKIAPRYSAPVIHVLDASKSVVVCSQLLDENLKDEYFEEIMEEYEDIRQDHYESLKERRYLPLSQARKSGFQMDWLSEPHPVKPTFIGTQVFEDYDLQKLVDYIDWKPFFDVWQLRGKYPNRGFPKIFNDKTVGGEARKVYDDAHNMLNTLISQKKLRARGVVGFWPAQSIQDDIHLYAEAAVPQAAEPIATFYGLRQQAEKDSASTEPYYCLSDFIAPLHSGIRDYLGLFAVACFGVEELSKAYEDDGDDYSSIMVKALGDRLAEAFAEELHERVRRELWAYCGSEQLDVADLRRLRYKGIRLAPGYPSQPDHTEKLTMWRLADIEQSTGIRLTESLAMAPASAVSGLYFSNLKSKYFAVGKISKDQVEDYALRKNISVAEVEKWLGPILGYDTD
Human methionine synthase (MTR), wild-type, full-length recombinant, sequence (chain, as listed by the source): as the sequence (chain, as listed by the source P1173L) above, with L1173P counted along it

Substance	observed rate constant for complex formation (kobs)
Human methionine synthase (MTR), wild-type, full-length recombinant	the observed rate constant for complex formation was 0.1 ± 0.01 s^−1
P1173L variant of human methionine synthase (MTR), full-length recombinant	the observed rate constant for complex formation was 0.1 ± 0.01 s^−1
